The target of the test is T1, Histidine-tagged recombinant human FcγRI (CD64) (human, UniProt P12314 16-288).
T1 construct: bought; also called Sino Biological Cat. No. 12056-H08H
Kind of test: SPR, culture supernatant, captured His-FcγRI. (In general: Surface plasmon resonance follows binding to a sensor surface in real time, without labels.)

Residue numbers refer to the chain shown, from its start. In names and notes the source's numbering stands.
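Further: biacore T200 SPR at 25 °C, anti-His capture, supernatants of HEK293 cells expressing IgG1 Fc variants injected 1 min, reference-subtracted response read 55 s after injection start.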

B1: anti-CD20 human IgG1 L234E/L235G/G236R (antibody)
heavy: QVQLQQPGAELVKPGASVKMSCKASGYTFTSYNMHWVKQTPGRGLEWIGAIYPGNGDTSYNQKFKGKATLTADKSSSTAYMQLSSLTSEDSAVYYCARSTYYGGDWYFNVWGAGTTVTVSSASTKGPSVFPLAPSSKSTSGGTAALGCLVKDYFPEPVTVSWNSGALTSGVHTFPAVLQSSGLYSLSSVVTVPSSSLGTQTYICNVNHKPSNTKVDKKVEPKSCDKTHTCPPCPAPEEGRGPSVFLFPPKPKDTLMISRTPEVTCVVVDVSHEDPEVKFNWYVDGVEVHNAKTKPREEQYNSTYRVVSVLTVLHQDWLNGKEYKCKVSNKALPAPIEKTISKAKGQPREPQVYTLPPSRDELTKNQVSLTCLVKGFYPSDIAVEWESNGQPENNYKTTPPVLDSDGSFFLYSKLTVDKSRWQQGNVFSCSVMHEALHNHYTQKSLSLSPGK
light: QIVLSQSPAILSASPGEKVTMTCRASSSVSYIHWFQQKPGSSPKPWIYATSNLASGVPVRFSGSGSGTSYSLTISRVEAEDAATYYCQQWTSNPPTFGGGTKLEIKRTVAAPSVFIFPPSDEQLKSGTASVVCLLNNFYPREAKVQWKVDNALQSGNSQESVTEQDSKDSTYSLSSTLTLSKADYEKHKVYACEVTHQGLSSPVTKSFNRGEC
notes: also called 1-35; copies: 2 + 2
As for B1, the Mean binding response is 71.2 RU.

B2: anti-CD20 human IgG1 L234G/L235I/G236R (antibody)
heavy: B1 heavy with E238G, G239I
light: B1 light
notes: also called 1-52; copies: 2 + 2
As for B2, the Mean binding response came out at 29.2 RU.

B3: anti-CD20 human IgG1 L234E/L235T/G236R (antibody)
heavy: B1 heavy with G239T
light: B1 light
notes: also called 1-45; copies: 2 + 2
With B3, the Mean binding response was 29.6 RU.

B4: anti-CD20 human IgG1 L234G/L235R/G236R (antibody)
heavy: B1 heavy with E238G, G239R
light: B1 light
notes: also called 1-58; copies: 2 + 2
On to B4, for which the Mean binding response was 29.3 RU.

B5: anti-CD20 human IgG1 L234E/L235H/G236R (antibody)
heavy: B1 heavy with G239H
light: B1 light
notes: also called 1-36; 2-13; copies: 2 + 2
As for B5, the Mean binding response was found to be 21.4 RU.

B6: anti-CD20 human IgG1 L234G/L235T/G236R (antibody)
heavy: B1 heavy with E238G, G239T
light: B1 light
notes: also called 1-60; copies: 2 + 2
As to B6, the Mean binding response was 26.5 RU.

B7: anti-CD20 human IgG1 L234E/L235V/G236R (antibody)
heavy: B1 heavy with G239V
light: B1 light
notes: also called 1-46; 2-16; copies: 2 + 2
B7: the Mean binding response was 18.4 RU.

B8: anti-CD20 human IgG1 L234G/L235M/G236R (antibody)
heavy: B1 heavy with E238G, G239M
light: B1 light
notes: also called 1-55; copies: 2 + 2
For the molecule B8, the Mean binding response worked out at 23.2 RU.

B9: anti-CD20 human IgG1 L234G/L235D/G236R (antibody)
heavy: B1 heavy with E238G, G239D
light: B1 light
notes: also called 1-48; copies: 2 + 2
Consider B9, for which the Mean binding response turned out to be 23.6 RU.

B10: anti-CD20 human IgG1 L234G/L235E/G236R (antibody)
heavy: B1 heavy with E238G, G239E
light: B1 light
notes: also called 1-49; copies: 2 + 2
For B10, the Mean binding response turned out to be 31.8 RU.

B11: anti-CD20 human IgG1 L234G/L235G/G236R (antibody)
heavy: B1 heavy with E238G
light: B1 light
notes: also called 1-50; copies: 2 + 2
As to B11, the Mean binding response is 29.5 RU.

B12: anti-CD20 human IgG1 L234G/L235N/G236R (antibody)
heavy: B1 heavy with E238G, G239N
light: B1 light
notes: also called 1-56; copies: 2 + 2
As to B12, the Mean binding response turned out to be 26.8 RU.

B13: anti-CD20 human IgG1 L234G/G236R (antibody)
heavy: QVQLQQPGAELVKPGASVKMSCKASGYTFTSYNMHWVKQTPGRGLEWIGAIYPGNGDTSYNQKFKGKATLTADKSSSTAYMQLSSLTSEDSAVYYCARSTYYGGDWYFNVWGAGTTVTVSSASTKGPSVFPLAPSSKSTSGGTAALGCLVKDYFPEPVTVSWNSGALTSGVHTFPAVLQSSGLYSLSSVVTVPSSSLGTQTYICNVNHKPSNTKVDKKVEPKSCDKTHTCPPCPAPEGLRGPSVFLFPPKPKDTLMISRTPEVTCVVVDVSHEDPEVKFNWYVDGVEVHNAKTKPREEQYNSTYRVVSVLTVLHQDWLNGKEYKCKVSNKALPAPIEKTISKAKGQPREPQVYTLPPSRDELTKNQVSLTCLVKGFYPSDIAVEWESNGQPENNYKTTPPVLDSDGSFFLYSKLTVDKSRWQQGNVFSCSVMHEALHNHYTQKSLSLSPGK
light: B1 light
notes: also called 1-54; 2-85; copies: 2 + 2
B13: the Mean binding response came out at 28.5 RU.

B14: anti-CD20 human IgG1 L234E/L235Q/G236R (antibody)
heavy: B1 heavy with G239Q
light: B1 light
notes: also called 1-42; copies: 2 + 2
Turning to B14, the Mean binding response was 33.7 RU.

B15: anti-CD20 human IgG1 L234G/L235K/G236R (antibody)
heavy: B1 heavy with E238G, G239K
light: B1 light
notes: also called 1-53; copies: 2 + 2
Take B15: the Mean binding response was determined as 27.4 RU.

B16: anti-CD20 human IgG1 L234E/L235S/G236R (antibody)
heavy: B1 heavy with G239S
light: B1 light
notes: also called 1-44; copies: 2 + 2
As to B16, the Mean binding response was determined as 39.2 RU.

B17: anti-CD20 human IgG1 L234E/L235R/G236R (antibody)
heavy: B1 heavy with G239R
light: B1 light
notes: also called 1-43; copies: 2 + 2
Regarding B17, the Mean binding response amounted to 26.7 RU.

B18: anti-CD20 human IgG1 L234G/L235A/G236R (antibody)
heavy: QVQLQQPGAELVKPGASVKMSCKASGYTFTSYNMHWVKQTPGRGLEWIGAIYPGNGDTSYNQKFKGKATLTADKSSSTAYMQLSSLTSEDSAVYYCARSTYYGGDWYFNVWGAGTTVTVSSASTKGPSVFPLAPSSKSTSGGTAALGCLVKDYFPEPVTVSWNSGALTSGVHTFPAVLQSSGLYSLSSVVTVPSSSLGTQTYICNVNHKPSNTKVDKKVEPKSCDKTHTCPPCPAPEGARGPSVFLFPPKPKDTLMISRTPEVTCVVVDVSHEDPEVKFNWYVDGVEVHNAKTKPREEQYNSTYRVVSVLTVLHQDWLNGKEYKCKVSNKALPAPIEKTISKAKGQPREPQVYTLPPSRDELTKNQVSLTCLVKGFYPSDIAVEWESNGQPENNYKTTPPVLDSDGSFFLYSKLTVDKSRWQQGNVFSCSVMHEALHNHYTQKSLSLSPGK
light: B1 light
notes: also called 1-47; copies: 2 + 2
For B18, the Mean binding response came to 23 RU.

B19: anti-CD20 human IgG1 L234E/L235K/G236R (antibody)
heavy: B1 heavy with G239K
light: B1 light
notes: also called 1-38; copies: 2 + 2
Consider B19, for which the Mean binding response amounted to 34.1 RU.

B20: anti-CD20 human IgG1 L234H/L235D/G236R (antibody)
heavy: B1 heavy with E238H, G239D
light: B1 light
notes: also called 1-63; copies: 2 + 2
On to B20, for which the Mean binding response came to 38.5 RU.

B21: anti-CD20 human IgG1 L234G/L235H/G236R (antibody)
heavy: B1 heavy with E238G, G239H
light: B1 light
notes: also called 1-51; 2-17; copies: 2 + 2
Regarding B21, the Mean binding response was 19 RU.

B22: anti-CD20 human IgG1 L234H/L235A/G236R (antibody)
heavy: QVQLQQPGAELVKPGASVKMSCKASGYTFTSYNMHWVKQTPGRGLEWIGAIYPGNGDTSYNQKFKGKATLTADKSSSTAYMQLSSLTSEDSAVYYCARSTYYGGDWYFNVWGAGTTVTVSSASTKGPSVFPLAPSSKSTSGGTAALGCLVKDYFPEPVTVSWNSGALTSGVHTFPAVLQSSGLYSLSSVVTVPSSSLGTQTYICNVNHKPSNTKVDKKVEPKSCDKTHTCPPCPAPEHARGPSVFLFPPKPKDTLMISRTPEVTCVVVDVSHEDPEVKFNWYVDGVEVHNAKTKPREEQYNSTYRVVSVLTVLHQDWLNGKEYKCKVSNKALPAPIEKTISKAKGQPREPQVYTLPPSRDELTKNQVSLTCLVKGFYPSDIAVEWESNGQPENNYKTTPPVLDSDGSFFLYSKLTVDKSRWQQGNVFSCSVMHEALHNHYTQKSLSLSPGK
light: B1 light
notes: also called 1-62; copies: 2 + 2
As for B22, the Mean binding response amounted to 29.4 RU.

B23: anti-CD20 human IgG1 L234G/L235Q/G236R (antibody)
heavy: B1 heavy with E238G, G239Q
light: B1 light
notes: also called 1-57; 2-18; copies: 2 + 2
In the case of B23, the Mean binding response is 13.6 RU.

These data come from patent publication US20230235013A1 (MABSOLVE, published 2023).
